Results taken from patent US20210230266A1 (SINGAPORE HEALTH SERVICES PTE, published 2021).

T1: Human IL-11 (human, UniProt P20809 22-199)
T1 sequence: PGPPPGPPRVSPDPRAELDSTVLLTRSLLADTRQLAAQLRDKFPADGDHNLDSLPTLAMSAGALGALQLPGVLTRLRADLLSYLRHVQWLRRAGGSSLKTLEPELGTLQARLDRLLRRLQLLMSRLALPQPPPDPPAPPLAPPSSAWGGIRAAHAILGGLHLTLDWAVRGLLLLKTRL

T2: Mouse IL-11 (mouse, UniProt P47873 22-199, limits assumed)
T2 construct: also called murine IL-11; recombinant murine IL-11
T2 sequence (looked up): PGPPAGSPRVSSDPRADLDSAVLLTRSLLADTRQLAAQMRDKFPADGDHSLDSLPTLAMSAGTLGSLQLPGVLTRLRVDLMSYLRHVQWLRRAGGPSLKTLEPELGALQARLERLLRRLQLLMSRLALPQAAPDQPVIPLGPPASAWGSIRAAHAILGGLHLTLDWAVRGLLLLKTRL

B1: YU112-H02 (antibody)
chain: QVQLVESGGGVVQPGRSLRLSCAASGFTFSSYGMHWVRQAPGKGLEWVAVISYDGSNKYYADSVKGRFTISRDNSKNTLYLQMNSLRAEDTAVYYCAKLSGPNGVDYWGQGTLVTVSSGSASAPKLEEGEFSEARVQPVLTQPRSVSGSPGQSVTISCTGTSSDVGGYNYVSWYQQHPGKAPKVMIYDVSKRPSGVPDRFSGSKSGNTASLTISGLQAEDEADYYCCSYAGSYTWVFGGGTKLTVL
B2: YU112-B06 (antibody)
chain: QVQLVESGGGVVQPGRSLRLSCAASGFTFSSYGMHWVRQAPGKGLEWVAVISYDGSNKYYADSVKGRFTISRDNSKNTLYLQMNSLRAEDTAVYYCAKIGATDPLDYWGQGTLVTVSSGSASAPKLEEGEFSEARVQSALTQPASVSGSPGQSITISCTGTSSDVGGYNYVSWYQQHPGKAPKLMIYDVSNRPSGVSNRFSGSKSGNTASLTIFGLQAEDEADYYCSSYTSSSSWVFGGGTKLTVL
B3: YU112-C05 (antibody)
chain: EVQLVESGGGVVQPGRSLRLSCAASGFTFSSYAMHWVRQAPGKGLEWVAVISYDGSNKYYADSVKGRFTISRDNSKNTLYLQMNSLRAEDTAVYYCARIMGYDYGDYDVVDYWGQGTLVTVSSGSASAPKLEEGEFSEARVQSALTQPRSVSGSPGQSVTISCTGTISDVGGYNYVSWYQQHPGKAPKLMIYDVTKRPSGVPDRFSGSKSGNTASLTISGLQAEDEAGYYCSSYAGSYTWVFGGGTELTVL
B4: YU112-A07 (antibody)
chain: QVQLVESGGGVVQPGRSLRLSCAASGFTFSSYGMHWVRQAPGKGLEWVAVISYDGSNKYYTDSVKGRFTISRDNSKNTLYLQMNSLRAEDTAVYYCAKIGATDPLDYWGQGTLVTVSSGSASAPKLEEGEFSEARVQSALTQPRSVSGSPGQSVTISCTGTISDVGGYNYVSWYQQHPGKAPKLMIYDVTKRPSGVPDRFSGSKSGNTASLTISGLQAEDEAGYYCSSYAGSYTWVFGGGTELTVL
B5: YU100-A11 (antibody)
chain: EVQLQQSGGGVVQPGRSLRLSCAASGFTFSSYGMHWVRQAPGKGLEWVAVISYDGSNKYYADSVKGRFTISRDNSKNTLYLQMNSLRAEDTAVYYCAKIGATDPLDYWGQGTLVTVSSGSASAPKLEEGEFSEARVQSALTQPRSVSGSPGQSVTISCTGTSSDVGGYNYVSWYQQHPGKAPKLMIYDVSKRPSGVPDRFSGSKSGNTASLTISGLQAEDEADYYCCSYAGSYTWVFGGGTKLTVL
B6: YU100-A12 (antibody)
chain: QVQLVESGGGVVQPGRSLRLSCAASGFTFSSYGMHWVRQAPGKGLEWVAVISYDGSNKYYADSVKGRFTISRDNSKNTLYLQMNSLRAEDTAVYYCAKIGATDPLDYWGQGTLVTVSSGSASAPKLEEGEFSEARVLPVLTQPRSVSGSPGQSVTISCTGTSSDVGGYNYVSWYQQHPGKAPKLMIYDVSKRPSGVPDRFSGSKSGDTASLTISGLQAEDEADYYCSSYAGSYTWVFGGGTKLTVL
B7: YU112-G06 (antibody)
chain: QVQLQESGGGVVQPGRSLRLSCAASGFTFSSYGMHWVRQAPGKGLEWVAVISYDGSNKYYADSVKGRFTISRDNSKNTLYLQMNSLRAEDTAVYYCAKIGATDPLDYWGQGTLVTVSSGSASAPKLEEGEFSEARVQSALTQPRSVSGSPGQSVTISCTGTISDVGGYNYVSWYQQHPGKAPKLMIYDVTKRRSGVPDRFSGSKSGNTASLTISGLQAEDEAGYYCSSYAGGYTWVFGGGTELTVL
B8: YU112-D08 (antibody)
chain: QVQLVESGGGVVQPGRSLRLSCAASGFTFSSYGMHWVRQAPGKGLEWVAVISYDGSNKYYADSVEGRFTISRDNSKNTLYLQMNSLRAEDTAVYYCAKIGATDPLDYWGQGTLVTVSSGSASAPKLEEGEFSEARVQSALTQPRSVSGSPGQSVTISCTGTISDVGGYNYVSWYQQHPGKAPKLMIYDVTKRPSGVPDRFSGSKSGNTASLTISGLQAEDEAGYYCSSYAGSYTWVFGGGTELTVL
B9: YU112-C03 (antibody)
chain: QVQLVESGGGVVQPGRSLRLSCAASGFTFSSYGMHWVRQAPGKGLEWVAVISYDGSNKYYADSVKGRFTISRDNSKNTLYLQMNSLRAEDTAVYYCAKGGKSYYGFDYWGQGTLVTVSSGSASAPKLEEGEFSEARVDSVMTQSPSSLSASVGDRVTITCRASQAINSYLNWYQQKPGKAPKLLIYAASSLQSGVPSRFSGSGSGTDFTLTISGLQPEDFATYYCQQSYSTPSWTFGQGTKVEIK
B10: YU112-H01 (antibody)
chain: QVQLVESGGGVVQPGRSLRLSCAASGFTFGSYGMHWVRQAPGKGLEWVAVISYDGSNKYYADSVKGRFTISRDNSKNTLYLQMNSLRAEDTAVYYCAKGSYYFDYWGQGTLVTVSSGSASAPKLEEGEFSEARVETTLTQSPGTLSLSPGERATLSCRASQSVSSSYLAWYQQKPGQAPRLLIYGASSRATGIPDRFSGSGSGTDFTLTISSLQPDDFATYYCQQSYSTPTWTFGQGTKVEIK
B11: YU112-F05 (antibody)
chain: EVQLVQSGGGVVQPGRSLRLSCAASGFTFGSYGMHWVRQAPGKGLEWVAVISYDGSNKYYADSVKGRFTISRDNSKNTLYLQMNSLRAEDTAVYYCAKIGATDPLDYWGQGTLVTVSSGSASAPKLEEGEFSEARVQSALTQPRSVSGSPGQSVTISCTGTSSDVGGYNYVSWYQQHPGKAPKLIIYDVNNRPSGVSNRFSASKSGNTASLTISGLQAEDEADYYCNSYTSGSTWVFGGGTKLTVL
B12: YU100-A10 (antibody)
chain: EVQLVESGGGVVQPGRSLRLSCAASGFTFSSYGMHWVRQAPGKGLEWVAVISYDGSNKYYADSVKGRFTISRDNSKNTLYLQMNSLRAEDTAVYYCAKIGATDPLDYWGQGTLVTVSSGSASAPKLEEGEFSEARVLPVLTQPASVSGSPGQSITISCTGTSSDVGAYNYVSWYQQHPGKAPELMIYDVSNRPSGVSNRFSGSKSGNTASLTISGLQPEDEADYYCSSFTTSIAWVFGGGTKLTVL

Columns and labels:
Human IL-11 [1] = biological target: T1, Human IL-11; assay: cell-based or functional assay
Human IL-11 [2] = biological target: T1, Human IL-11; assay: ELISA
Protocol: (§1) The soluble scFv were produced by recombinant expression in E. coli, and analysed for their ability to bind to human IL-11 and murine IL-11 by ELISA. Briefly, the respective antigen was coated to wells of an ELISA plate, the cell culture supernatant containing the respective scFv was added at a 1:2 dilution, and binding was detected.

Mouse IL-11 = biological target: T2, Mouse IL-11; assay: ELISA
Protocol: as §1

Human IL-11 [3] = biological target: T1, Human IL-11; assay: ELISA on coated recombinant human IL-11 (100 ng/well), scFv-Fc
Protocol: The light chain shuffled anti-IL-11 antibodies were analysed to determine the EC50 for binding to human IL-11 by ELISA according to standard methods. Briefly, wells of microtiter plates were coated with recombinant human IL-11 (100 ng/well), scFv-Fc comprising the VH and VL domains of the clones were added in a dilution series and antibody binding was detected using a polyclonal antibody detection system.

| Binder | MMP2 production, Experiment 1 (human atrial fibroblasts + TGFB1) (Human IL-11 [1]) [ng/mL] | MMP2 production, Experiment 2 (human atrial fibroblasts + TGFB1) (Human IL-11 [1]) [ng/mL] | hIL11 - average signal (Human IL-11 [2]) | mIL11 - average signal (Mouse IL-11) | EC50 (Human IL-11 [3]) [µg/mL] |
| --- | --- | --- | --- | --- | --- |
| B1 | 65.3 | 58 | 0.606 | 0.785 | 0.02 |
| B2 | 49.7 | 43.9 | 0.756 | 0.622 | 0.02 |
| B3 | 55.2 | 50.1 | 0.458 | 0.685 | 0.012 |
| B4 | 50.7 | 45 | 0.438 | 0.612 | 0.025 |
| B5 | 51.6 | 45.7 | 0.333 | 0.372 | 0.02 |
| B6 | 59.5 | 50.4 | 0.32 | 0.388 | 0.023 |
| B7 | 55 | 47.8 | 0.664 | 0.762 | 0.017 |
| B8 | 50.3 | 42.5 | 0.418 | 0.723 | 0.018 |
| B9 | 57.6 | 53.3 | 0.566 | 0.445 | 0.017 |
| B10 | 51.9 | 47.7 | 1.23 | 1.18 | 0.02 |
| B11 | 53.9 | 48.5 | 0.863 | 0.601 | 0.04 |
| B12 | 52.1 | 50.1 | 0.443 | 0.54 | 0.023 |
